Results: US20030009022A1 (published 2003)
Ends that are not written are not given here. * marks the point of attachment. For = O=C*

B1: peptide DM-1 (peptide)
peptide: PPFFFRPVGMF
B2: peptide MMK-1 (peptide)
peptide: LESIFRSLLFRVM
B3: peptide MMWLL, Met-Met-Trp-Leu-Leu (peptide)
peptide: MMWLL
B4: f-A5, N-terminally formylated derivative of peptide A5 (peptide)
peptide: For-SLLWLTCRPWEAM
B5: peptide AF-3 (peptide)
peptide: RFPKNCHLRPPRMILFTALV
B6: peptide A5, Ser-Leu-Leu-Trp-Leu-Thr-Cys-Arg-Pro-Trp-Glu-Ala-Met (peptide)
peptide: SLLWLTCRPWEAM
B7: peptide AF-2 (peptide)
peptide: SMCPTASAWVWLM
B8: fMLP, formyl-MLF (peptide)
peptide: For-Met-Leu-Phe
B9: peptide AF-1 (peptide)
peptide: CPAAVLWRWVPM

Legend:
Test in all cases: cell-based or functional assay
[1] = biological target: T1, human formyl peptide receptor FPR1 (human, UniProt P21462 1-350)
T1 sequence (looked up): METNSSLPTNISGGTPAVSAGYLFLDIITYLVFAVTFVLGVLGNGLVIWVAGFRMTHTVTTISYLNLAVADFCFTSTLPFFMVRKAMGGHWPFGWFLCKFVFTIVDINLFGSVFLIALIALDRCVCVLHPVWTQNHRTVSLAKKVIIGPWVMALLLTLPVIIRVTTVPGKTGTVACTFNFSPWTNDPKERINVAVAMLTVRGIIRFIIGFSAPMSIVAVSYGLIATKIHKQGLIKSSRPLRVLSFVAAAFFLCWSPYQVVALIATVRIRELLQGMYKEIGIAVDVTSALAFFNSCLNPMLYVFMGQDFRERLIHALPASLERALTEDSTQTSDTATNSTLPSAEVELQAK

[2] = biological target: T2, human formyl peptide receptor like-1 (FPRL-1) receptor (human, UniProt P25090 1-351)
T2 sequence (looked up): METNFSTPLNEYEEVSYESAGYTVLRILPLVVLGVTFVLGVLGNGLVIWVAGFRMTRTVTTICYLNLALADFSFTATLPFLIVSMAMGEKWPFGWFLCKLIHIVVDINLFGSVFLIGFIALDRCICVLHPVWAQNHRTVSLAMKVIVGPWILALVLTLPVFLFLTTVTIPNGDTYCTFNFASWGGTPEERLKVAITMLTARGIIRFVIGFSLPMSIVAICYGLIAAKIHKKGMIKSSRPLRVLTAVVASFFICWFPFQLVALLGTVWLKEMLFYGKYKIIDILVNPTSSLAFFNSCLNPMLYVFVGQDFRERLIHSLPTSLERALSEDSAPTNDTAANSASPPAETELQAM

[3] = biological target: T1, human formyl peptide receptor FPR1; remark: listed apart in the source
[4] = biological target: T2, human formyl peptide receptor like-1 …; remark: listed apart in the source

Binder	EC50(nM), transient Ca2+ flux in HEK293/Gα16 cells expressing FPR1 [1] [nM]	EC50(nM), transient Ca2+ flux in HEK293/Gα16 cells expressing FPRL-1 [2] [nM]	further results
B1	> 10000	2400	–
B2	> 10000	< 2	–
B3	< 0.3	80	–
B4	10	2	EC50, calcium mobilization in HEK293/Gα16 cells expressing FPR1 [3]: 0.1 nM; EC50 against that of A5, calcium mobilization in indo-1 loaded human neutrophils [4]: 10 fold lower EC50 than A5
B5	380	650	–
B6	> 10000	35	EC50, calcium mobilization in indo-1 loaded human neutrophils [4]: ~300 nM; apparent EC50, induction of β-galactosidase activity by synthetic peptide added to yeast strain CY6565 [4]: ~5000 nM; induction of β-galactosidase activity (FUSI-lacZ, yeast) [4]: 7 fold; stimulation over background levels of β-galactosidase (fus1-lacZ, yeast) [4]: 8 fold
B7	690	87	–
B8	< 0.3	40	EC50, calcium mobilization in human neutrophils [3]: < 0.2 nM; EC50, transient calcium mobilization in HEK293/Gα16 cells expressing FPRL-1 [4]: 400 nM
B9	5000	16	–
